Results reported in patent US20060063701A1 (INSTITUTE FOR PROTEIN SCIENCE, published 2006).
Ends that are not written are not given here.

Assays:
recombinant human C5a = molecular target: T1, recombinant human C5a (human, UniProt P01031 678-751); assay: SPR (Biacore), C5a amine-coupled to CM5 chip, peptide as analyte
T1 construct: domain: C5a anaphylatoxin (74-amino acid peptide); The calcium assay names recombinant human C5a; The SPR section says only 'C5a'; C5a is a 74-residue fragment of it; also called RhC5a; C5a anaphylatoxin
T1 sequence (looked up): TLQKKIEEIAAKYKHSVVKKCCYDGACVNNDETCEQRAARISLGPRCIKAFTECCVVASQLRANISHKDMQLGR
Method: (§1) FIG. 1. Binding of C-peptides to immobilized PL37-MAP and C5a using Biacore equipment. An overlay plot of response curves obtained from the Biacore instrument when various concentrations of Pep-A and Pep-B were injected. All samples were injected at time 0, and the association was monitored as an increase in RU. a, Various concentrations of Pep-A were injected over the PL37-MAP-coupled flow cell. b, The same concentrations of Pep-B were also injected over the PL37-MAP-coupled flow cell. c, Pep-A was injected over the C5a-coupled flow cell at the same concentrations of Pep-A as in FIG. 1a. d, The same concentrations of Pep-B were also injected over the C5a-coupled flow cell.
(§2) Binding interactions between PL37 or C5a with C-peptides were evaluated using surface plasmon resonance (SPR) technology with the Biacore system. PL37 and C5a were covalently immobilized on the CM5 sensor chip by amine coupling methods using N-ethyl-N-(dimethylaminopropyl)carbodiimide/N-hydroxysuccinimide (EDC/NHS) according to the manufacturer's instructions. […] Binding interactions were determined by passing samples simultaneously over both the EA-blocked cell and the flow cell with immobilized PL37 or C5a so as to obtain units of resonance response (RU) by subtraction of the background using Biacore software (BIA evaluation).

[1] = molecular target: T2, PL37 in multiple antigenic peptide form (human, also: multiple antigenic peptide form, core and copy number not given here, abstract and print the sequence differently); assay: SPR (Biacore), PL37-MAP amine-coupled to CM5 chip, peptide as analyte
T2 construct: PL37 is the fragment aa 37-53 of C5a anaphylatoxin; The assays used the MAP form; its core and valency are not described; also called PL37-MAP
T2 peptide: RAARISLGPRCIKAFTE
Method: as §1
as §2, with “evaluation). […]” for “evaluation).”

B1: Peptide-B (peptide)
peptide: ASTAPARAGLPRLPKFF
notes: Synthetic 17-residue complementary peptide designed with MIMETIC against PL37; also called Pep-B; C-peptide B
Question: Which results are given for B1?
Answer: binding result (recombinant human C5a): no binding; binding result [1]: no binding
